Laboratory results from patent US9561272B2, “Compositions and methods for modulating immune responses” (The University of Queensland, priority 2006, dated 2017).

B1: Siah2 (protein, UniProt O43255 1-324, looked up)
E3 ubiquitin-protein ligase …: MSRPSSTGPSANKPCSKQPPPQPQHTPSPAAPPAAATISAAGPGSSAVPAAAAVISGPGGGGGAGPVSPQHHELTSLFECPVCFDYVLPPILQCQAGHLVCNQCRQKLSCCPTCRGALTPSIRNLAMEKVASAVLFPCKYATTGCSLTLHHTEKPEHEDICEYRPYSCPCPGASCKWQGSLEAVMSHLMHAHKSITTLQGEDIVFLATDINLPGAVDWVMMQSCFGHHFMLVLEKQEKYEGHQQFFAIVLLIGTRKQAENFAYRLELNGNRRRLTWEATPRSIHDGVAAAIMNSDCLVFDTAIAHLFADNGNLGINVTISTCCP
B2: Secretory leukoprotease inhibitor (SLPI) (protein, UniProt P03973 26-132, looked up)
Antileukoproteinase: SGKSFKAGVCPPKKSAQCLRYKKPECQSDWQCPGKKRCCPDTCGIKCLDPVDTPNPTRRKPGKCPVTYGQCLMLNPPNFCEMDGQCKRDLKCCMGMCGKSCVSPVKA
B3: PIAS3 (protein, UniProt Q9Y6X2 1-628, looked up)
E3 SUMO-protein ligase PIAS3: MAELGELKHMVMSFRVSELQVLLGFAGRNKSGRKHELLAKALHLLKSSCAPSVQMKIKELYRRRFPRKTLGPSDLSLLSLPPGTSPVGSPGPLAPIPPTLLAPGTLLGPKREVDMHPPLPQPVHPDVTMKPLPFYEVYGELIRPTTLASTSSQRFEEAHFTFALTPQQVQQILTSREVLPGAKCDYTIQVQLRFCLCETSCPQEDYFPPNLFVKVNGKLCPLPGYLPPTKNGAEPKRPSRPINITPLARLSATVPNTIVVNWSSEFGRNYSLSVYLVRQLTAGTLLQKLRAKGIRNPDHSRALIKEKLTADPDSEVATTSLRVSLMCPLGKMRLTVPCRALTCAHLQSFDAALYLQMNEKKPTWTCPVCDKKAPYESLIIDGLFMEILSSCSDCDEIQFMEDGSWCPMKPKKEASEVCPPPGYGLDGLQYSPVQGGDPSENKKKVEVIDLTIESSSDEEDLPPTKKHCSVTSAAIPALPGSKGVLTSGHQPSSVLRSPAMGTLGGDFLSSLPLHEYPPAFPLGADIQGLDLFSFLQTESQHYGPSVITSLDEQDALGHFFQYRGTPSHFLGPLAPTLGSSHCSATPAPPPGRVSSIVAPGGALREGHGGPLPSGPSLTGCRSDIISLD
B4: Uteroglobin (protein, UniProt P11684 22-91, looked up)
Uteroglobin: EICPSFQRVIETLLMDTPSSYEAAMELFSPDQDMREAGAQLKKLVDTLPQKPRESIIKLMEKIAQSSLCN
B5: ovalbumin (protein, UniProt P01012 2-386, looked up)
Ovalbumin: GSIGAASMEFCFDVFKELKVHHANENIFYCPIAIMSALAMVYLGAKDSTRTQINKVVRFDKLPGFGDSIEAQCGTSVNVHSSLRDILNQITKPNDVYSFSLASRLYAEERYPILPEYLQCVKELYRGGLEPINFQTAADQARELINSWVESQTNGIIRNVLQPSSVDSQTAMVLVNAIVFKGLWEKAFKDEDTQAMPFRVTEQESKPVQMMYQIGLFRVASMASEKMKILELPFASGTMSMLVLLPDEVSGLEQLESIINFEKLTEWTSSNVMEERKIKVYLPRMKMEEKYNLTSVLMAMGITDVFSSSANLSGISSAESLKISQAVHAAHAEINEAGREVVGSAEAGVDAASVSEEFRADHPFLFCIKHIATNAVLFFGRCVSP
notes: model antigen
B6: FITC-OVA: fluorescein isothiocyanate conjugated to ovalbumin (conjugate, UniProt P01012 2-386, looked up)
Ovalbumin: B5 Ovalbumin
modifications: FITC label
notes: fluorescein isothiocyanate conjugated to ovalbumin
B7: NRF (NF-κB repression factor) (protein, UniProt O15226 1-690, looked up)
NF-kappa-B-repressing factor: MEKILQMAEGIDIGEMPSYDLVLSKPSKGQKRHLSTCDGQNPPKKQAGSKFHARPRFEPVHFVASSSKDERQEDPYGPQTKEVNEQTHFASMPRDIYQDYTQDSFSIQDGNSQYCDSSGFILTKDQPVTANMYFDSGNPAPSTTSQQANSQSTPEPSPSQTFPESVVAEKQYFIEKLTATIWKNLSNPEMTSGSDKINYTYMLTRCIQACKTNPEYIYAPLKEIPPADIPKNKKLLTDGYACEVRCQNIYLTTGYAGSKNGSRDRATELAVKLLQKRIEVRVVRRKFKHTFGEDLVVCQIGMSSYEFPPALKPPEDLVVLGKDASGQPIFNASAKHWTNFVITENANDAIGILNNSASFNKMSIEYKYEMMPNRTWRCRVFLQDHCLAEGYGTKKTSKHAAADEALKILQKTQPTYPSVKSSQCHTGSSPRGSGKKKDIKDLVVYENSSNPVCTLNDTAQFNRMTVEYVYERMTGLRWKCKVILESEVIAEAVGVKKTVKYEAAGEAVKTLKKTQPTVINNLKKGAVEDVISRNEIQGRSAEEAYKQQIKEDNIGNQLLRKMGWTGGGLGKSGEGIREPISVKEQHKREGLGLDVERVNKIAKRDIEQIIRNYARSESHTDLTFSRELTNDERKQIHQIAQKYGLKSKSHGVGHDRYLVVGRKRRKEDLLDQLKQEGQVGHYELVMPQAN
B8: SIRT1 Deacetylase overexpression (protein, UniProt Q96EB6 2-747, looked up)
NAD-dependent protein …: ADEAALALQPGGSPSAAGADREAASSPAGEPLRKRPRRDGPGLERSPGEPGGAAPEREVPAAARGCPGAAAAALWREAEAEAAAAGGEQEAQATAAAGEGDNGPGLQGPSREPPLADNLYDEDDDDEGEEEEEAAAAAIGYRDNLLFGDEIITNGFHSCESDEEDRASHASSSDWTPRPRIGPYTFVQQHLMIGTDPRTILKDLLPETIPPPELDDMTLWQIVINILSEPPKRKKRKDINTIEDAVKLLQECKKIIVLTGAGVSVSCGIPDFRSRDGIYARLAVDFPDLPDPQAMFDIEYFRKDPRPFFKFAKEIYPGQFQPSLCHKFIALSDKEGKLLRNYTQNIDTLEQVAGIQRIIQCHGSFATASCLICKYKVDCEAVRGDIFNQVVPRCPRCPADEPLAIMKPEIVFFGENLPEQFHRAMKYDKDEVDLLIVIGSSLKVRPVALIPSSIPHEVPQILINREPLPHLHFDVELLGDCDVIINELCHRLGGEYAKLCCNPVKLSEITEKPPRTQKELAYLSELPPTPLHVSEDSSSPERTSPPDSSVIVTLLDQAAKSNDDLDVSESKGCMEEKPQEVQTSRNVESIAEQMENPDLKNVGSSTGEKNERTSVAGTVRKCWPNRVAKEQISRRLDGNQYLFLPPNRYIFHGAEVYSDSEDDVLSSSSCGSNSDSGTCQSPSLEEPMEDESEIEEFYNGLEDEPDVPERAGGAGFGTDGDDQEAINEAISVKQEVTDMNYPSNKS

Experiments:
[1] = Entrapment efficiency of NF-κB inhibitor and antigen in liposomes (% EE); assay type: physicochemical; conditions: EPC liposomes; for entrapment efficiency of protein antigen in liposomes: freeze-thawing cycle repeated 5 times; for entrapment efficiency of NF-κB inhibitor in liposomes: after removal of non-entrapped drug
Experimental: Entrapment efficiency of protein following this process was typically at least 20%, approximately 60% for Bay and greater than 80% for both Quecertin and Curcumin. Empty, NF-κB inhibitor or protein only liposomes were prepared as above, by omitting the relevant bioactive/s. Following removal of non-entrapped NF-κB inhibitor and antigen, the amount of NF-κB inhibitor and antigen entrapped in liposome could be quantified by assay method. The entrapment efficiency was expressed as: [formula] […] The resulting solution was then kept at −20° C. After 30 minutes, the sample was centrifuged at maximum speed at 4° C. for 10 minutes (EBA 12R centrifuge, Hettich Zentrifugen, Germany) to remove precipitated protein. The concentration of Bay 11-7082 in the resulting supernatant was then assayed and calculated based on the established calibration (with consideration to the dilutions performed) (data not shown). […] The concentration of either quercetin or curcumin in the resulting solution was then assayed and calculated based on the established calibration curves (with consideration to the dilutions performed). […] The quantity of model antigen entrapped in liposomes was determined by a standard bicinchoninic acid (BCA) protein assay with slight modification. Briefly, liposomes loaded with OVA or mBSA were lysed using ethanol or iso-propanol at 20-fold dilution, respectively, and then stored at −20° C. After 30 minutes, the sample was centrifuged at maximum speed at 4° C. for 10 minutes (EBA 12R centrifuge, Hettich Zentrifugen, Germany). The supernatant containing lipid and NF-κB inhibitor was discarded. The protein pellet was then placed in an Alpha 2-4 LD Freeze-drier (Alpha 2-4 LD Freeze-drier, Martin Christ, Germany) to remove remaining solvent. One hundred μL of 2.5% w/v sodium dodecyl sulfate (SDS) solution (for OVA) or water (for mBSA) was added to redissolve the protein pellet. SDS was required for aiding to re-dissolve OVA pellet. The resulting protein solution was mixed with 2 mL of BCA solution (Pierce Biotechnology Inc., USA) and incubated at 37° C. for 30 minutes. After incubation, the absorbance of the solution was measured using a Cary 50 UV-VIS spectrophotometer (Varian, Calif., USA) at a wavelength of 562 nm. The concentration of OVA and mBSA was calculated on the basis of calibration curves established using a series of known concentrations of either OVA or mBSA solution ranging from 0.25 mg/mL to 2 mg/mL.

[2] = cited from earlier work
NF-κB = conditions: Table 3, miscellaneous inhibitors of NF-κB; step of NF-κB function inhibited, per the cited reference; cited from earlier work
[3] = previous experiment, thin film method without freeze-thawing, same EPC concentration (Copland 2003); cited from earlier work

Molecule	Effect or point of inhibition (NF-κB)	other results
methylated bovine serum albumin [mBSA]		entrapment efficiency of protein antigen in liposomes [1]: approximately 25%
Cc1ccc(S(=O)(=O)/C=C/C#N)cc1 [Bay 11-7082, E3((4-methylphenyl)-sulfonyl)-2-propenenitrile, reference compound]		log P [2]: 1.63; entrapment efficiency of NF-κB inhibitor in liposomes [1]: around 60%; entrapment efficiency of NF-κB inhibitor in liposomes ([1]; listed as Bay): approximately 60%
B1	DNA binding	
B2	DNA binding	
B3	Transactivation	
B4	DNA binding	
B5		entrapment efficiency of protein antigen in liposomes [1]: ~20%
B6		entrapment efficiency of FITC-OVA in liposomes [3]: less than 5%
B7	Transactivation	
B8	DNA binding	
